Experimental data reported in publication PMC3692409, “RIT2, a neuron-specific small guanosine triphosphatase, is expressed in retinal neuronal cells and its promoter is modulated by the POU4 transcription factors”.

What was measured:
POU4F1-s [1] = biological target: T1, POU4F1-s (UniProt Q01851 85-419); test: competition EMSA; conditions: unlabeled, vs 32P-Probe 2; strongest competitor; 10 mM Tris-Cl pH 7.9, 100 mM KCl, 5 mM MgCl2, 1 mM EDTA, 1 mM DTT, 0.5 mM PMSF, 5% glycerol, 1 ug poly(dI-dC), on ice 30 min; 5% polyacrylamide gel
T1 sequence: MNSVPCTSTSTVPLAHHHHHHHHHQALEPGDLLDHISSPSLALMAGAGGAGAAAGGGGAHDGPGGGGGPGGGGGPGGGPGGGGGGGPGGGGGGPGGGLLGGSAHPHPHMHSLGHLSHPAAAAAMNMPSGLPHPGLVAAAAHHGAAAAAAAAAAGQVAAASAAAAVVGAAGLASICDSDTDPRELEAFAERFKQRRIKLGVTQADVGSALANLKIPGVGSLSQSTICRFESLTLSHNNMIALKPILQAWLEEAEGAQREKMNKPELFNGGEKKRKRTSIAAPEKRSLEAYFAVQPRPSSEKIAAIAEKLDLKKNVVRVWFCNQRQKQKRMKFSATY

POU4F1-l = biological target: T2, POU4F1-l (UniProt Q01851 1-419); test: EMSA; 10 mM Tris-Cl pH 7.9, 100 mM KCl, 5 mM MgCl2, 1 mM EDTA, 1 mM DTT, 0.5 mM PMSF, 5% glycerol, 1 ug poly(dI-dC), on ice 30 min; 5% polyacrylamide gel; conditions: protein: ivt
T2 sequence: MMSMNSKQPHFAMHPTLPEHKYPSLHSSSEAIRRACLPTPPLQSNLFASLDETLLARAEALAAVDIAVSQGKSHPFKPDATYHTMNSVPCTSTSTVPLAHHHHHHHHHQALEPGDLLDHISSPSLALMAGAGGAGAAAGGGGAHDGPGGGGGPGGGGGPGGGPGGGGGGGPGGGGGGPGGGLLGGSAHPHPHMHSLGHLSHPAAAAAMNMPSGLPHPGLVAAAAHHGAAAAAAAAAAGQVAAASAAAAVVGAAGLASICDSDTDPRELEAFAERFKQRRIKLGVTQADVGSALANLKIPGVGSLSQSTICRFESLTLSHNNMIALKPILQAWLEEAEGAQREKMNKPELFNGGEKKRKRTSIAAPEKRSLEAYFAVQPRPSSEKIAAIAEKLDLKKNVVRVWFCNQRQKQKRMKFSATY

POU4F3 = biological target: T3, POU4F3 (UniProt Q15319 1-338); test: as above; conditions: protein: ivt
T3 sequence: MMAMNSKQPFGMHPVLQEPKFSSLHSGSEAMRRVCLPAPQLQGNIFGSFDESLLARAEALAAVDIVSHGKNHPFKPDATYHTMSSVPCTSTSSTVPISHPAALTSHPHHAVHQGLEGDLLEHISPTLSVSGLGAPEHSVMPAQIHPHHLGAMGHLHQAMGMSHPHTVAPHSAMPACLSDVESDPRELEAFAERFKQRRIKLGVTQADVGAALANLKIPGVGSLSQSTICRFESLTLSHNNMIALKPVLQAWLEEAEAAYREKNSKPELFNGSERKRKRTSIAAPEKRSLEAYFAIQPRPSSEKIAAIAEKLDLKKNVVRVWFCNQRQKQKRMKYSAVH

POU4F2-l = biological target: T4, POU4F2-l (UniProt Q12837 1-409); test: as above; conditions: protein: ivt
T4 sequence: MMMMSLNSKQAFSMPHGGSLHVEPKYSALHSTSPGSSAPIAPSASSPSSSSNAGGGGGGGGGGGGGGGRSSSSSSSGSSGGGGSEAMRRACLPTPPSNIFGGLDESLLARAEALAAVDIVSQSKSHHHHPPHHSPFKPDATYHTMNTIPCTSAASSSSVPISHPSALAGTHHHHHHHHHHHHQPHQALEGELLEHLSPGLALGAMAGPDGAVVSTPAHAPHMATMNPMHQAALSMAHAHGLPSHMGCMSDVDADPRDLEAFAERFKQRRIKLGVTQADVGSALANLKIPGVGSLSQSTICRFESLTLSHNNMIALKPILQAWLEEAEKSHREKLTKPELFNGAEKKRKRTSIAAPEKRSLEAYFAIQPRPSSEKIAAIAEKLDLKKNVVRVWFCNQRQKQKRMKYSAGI

POU4F2-s = biological target: T5, POU4F2-s (UniProt Q12837 98-409); test: as above; conditions: protein: ivt
T5 sequence: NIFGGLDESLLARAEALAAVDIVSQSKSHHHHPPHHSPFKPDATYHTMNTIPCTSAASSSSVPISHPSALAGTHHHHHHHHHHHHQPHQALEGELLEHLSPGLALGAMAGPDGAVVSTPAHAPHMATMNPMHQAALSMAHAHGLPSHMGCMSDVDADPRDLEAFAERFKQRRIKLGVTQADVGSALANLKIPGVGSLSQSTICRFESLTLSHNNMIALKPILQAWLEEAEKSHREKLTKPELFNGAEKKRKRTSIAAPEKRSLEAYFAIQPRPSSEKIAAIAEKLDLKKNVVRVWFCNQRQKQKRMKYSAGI

POU4F1-s [2] = biological target: T1, POU4F1-s; test: as above; conditions: protein: ivt; label: 32P fill-in; overhangs filled in by Klenow
[3] = label: 32P fill-in, overhangs filled in by Klenow
[4] = overhangs filled in by Klenow when labeled

POU4F1 consensus site competitor showed a binding signal (relative binding strength) (POU4F1-s [1]) of 1000.

B1: Probe 1m (dsDNA)
DNA 1: AGCTCACGGCCTGAGTTAACAAAG
DNA 2: CTTTGTTAACTCAGGCCGTGAGCT
B1: no binding (POU4F1-l; [3]); no binding (POU4F3; [3]); no binding (POU4F2-l; [3]). B1: no binding (POU4F2-s; [3]); no binding (POU4F1-s [2]).

B2: Probe 2m (dsDNA)
DNA 1: AGGGTTTTAAGGCCCTATTCAGTG
DNA 2: CACTGAATAGGGCCTTAAAACCCT
B2: no binding (POU4F1-l; [4]); no binding (POU4F3; [4]); no binding (POU4F2-l; [4]). B2: no binding (POU4F2-s; [4]).

B3: Probe 2 (Site 2) (dsDNA)
DNA 1: AGGGTTTTAATTAACTATTCAGTG
DNA 2: CACTGAATAGTTAATTAAAACCCT
B3: binds (POU4F3; [4]); binds (POU4F2-l; [4]); binds (POU4F2-s; [4]).

B4: Probe 6m (dsDNA)
DNA 1: AGAAATCCTTAGGCCTTGACTTTG
DNA 2: CAAAGTCAAGGCCTAAGGATTTCT
B4: no binding (POU4F1-l; [3]); no binding (POU4F3; [3]); no binding (POU4F2-l; [3]). B4: no binding (POU4F2-s; [3]); no binding (POU4F1-s [2]).
